In US20260028398A1 (SUZHOU DIMA BIOTECHNOLOGY, published 2026):

How the values were obtained:
human GPRC5D [1] = biological target: T1, human GPRC5D (human, UniProt Q9NZD1 1-345); experiment: flow cytometry, scFv-hFc at 20 ug/ml on MM.1S and NCI-H929 cells
T1 construct: whole, on cells; Target always presented on cells (K562-GPRC5D, RPMI 8226, MM.1S, NCI-H929); also called GPRC5D protein

human GPRC5D [2] = biological target: T1, human GPRC5D; experiment: flow cytometry, scFv-hFc titrated on K562-GPRC5D and RPMI 8226 cells; G00 told only as the weaker comparator
human GPRC5D [3] = biological target: T1, human GPRC5D; experiment: flow cytometry, bispecific antibody titrated on NCI-H929 cells, APC anti-human IgG
Protocol: NCI-H929 and Jurkat cells were cultured for 48 hours, counted, and plated at a density of 2×10⁵ cells in 96-well V-bottom plates. The bispecific antibodies were serially diluted in PBS, with Talquetamab used as a positive control. The starting concentration was 100 μg/ml, followed by 1:5, 1:2, 1:2, 1:2, 1:2, 1:2, 1:2, 1:2 serial dilutions, resulting in […] for testing. 100 μl of proteins was added to each well with 200,000 cells. The BsAb was incubated with cells at 4° C. for 1 hour, washed three times with PBS and 0.2% FBS, and then APC-conjugated anti-human IgG mAb was added to each well. The cells were incubated with the secondary antibody for 1 hour at 4° C., washed three times again with PBS and 0.2% FBS, and then analyzed using flow cytometry.

human GPRC5D [4] = biological target: T1, human GPRC5D; experiment: flow cytometry, IgG1 antibody titrated on K562-GPRC5D cells

T1 sequence (Q9NZD1 whole entry): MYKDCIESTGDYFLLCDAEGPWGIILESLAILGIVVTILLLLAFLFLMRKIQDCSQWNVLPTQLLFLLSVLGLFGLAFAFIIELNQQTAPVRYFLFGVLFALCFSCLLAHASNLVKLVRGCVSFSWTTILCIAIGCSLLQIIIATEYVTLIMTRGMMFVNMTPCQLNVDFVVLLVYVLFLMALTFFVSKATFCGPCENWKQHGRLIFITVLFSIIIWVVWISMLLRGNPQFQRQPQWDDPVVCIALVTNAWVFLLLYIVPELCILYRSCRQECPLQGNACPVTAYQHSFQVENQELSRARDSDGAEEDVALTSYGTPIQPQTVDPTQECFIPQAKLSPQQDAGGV

Binder | binding result (human GPRC5D [1]) | binding result (human GPRC5D [3]) | binding result (human GPRC5D [4]) | other results
G02 scFv-hFc humanized IgG1 format antibody (Fc fusion, not shown: human IgG1 Fc (hFc) of the scFv-hFc vector) DIQMTQSPSTLSASVGDRVIINCQASQSVYNNNLLSWYQQKPGKAPKLLIYAASNLASGVPSRFSGSGSGAEFTLTISSLQPDDFATYYCQGYYGGAICAFGQGTKLTVLGGGGSGGGGSGGGGSEVQLVESGGGLVQPGGSLRLSCTASGFSLSSNAMSWVRQAPGKGLEWIGSIGRSGSTYNANWAKGRFTISRDNSKNTVYLQMNSLRAEDTAVYFCAKFTGGVSGGYFSVWGPGTLVTVSS | binds | – | – | –
control antibody G00 (MCARH109) as scFv-hFc IgG1 format antibody (Fc fusion, also called GOO; G00 scFv-hFc; not shown: human IgG1 Fc (hFc) of the scFv-hFc vector) QSALTQPASVSGSPGQSITISCTGTSSDVGGYNYVSWYQQHPGKAPKLMIYDVSKRPSGVSNRFSGSKSGNTASLTISGLQAEDEADYYCSSYTRSSTEVFGGGTKLTVLGSRGGGGSGGGGSGGGGSLEMAEVQLVQSGAEVKKPGASVKVSCKASGYTFTSYYMHWVRQAPGQGLEWMGIINPSGGSTSYAQKFQGRVTMTRDTSTSTVYMELSSLRSEDTAVYYCARGGSKKWSGEKWRRENFDYWGQGTLVTVSS | – | – | – | binding result (human GPRC5D [2]): binds
G05 BsAb (GPRC5D&CD3 bispecific antibody) (bispecific antibody, not shown: human kappa constant region of vector pTT5-hKappa) DIQMTQSPSSLSASVGDRVTITCQASESISKFLSWYQQKPGKVPKLLIYRASTLASGVPSRFSGSGSGTDFTLTISSLQPEDVATYYCQGYDGSSTTTNYESAFGQGTKLTVLGGGGSGGGGSGGGGSEVQLVESGGGLVQPGGSLRLSCAASGFSLTDNGITWVRQAPGKGLEWIGIMTTGGSTYYAGWAKGRFTISRDNSKNTLYLQMNSLRAEDTATYFCTRGYGIHGLWGPGTLVTVSSDKTHTCPPCPAPELLGGPSVFLFPPKPKDTLMISRTPEVTCVVVDVSHEDPEVKFNWYVDGVEVHNAKTKPREEQYNSTYRVVSVLTVLHQDWLNGKEYKCKVSNKALPAPIEKTISKAKGQPREPQVCTLPPSREEMTKNQVSLSCAVKGFYPSDIAVEWESNGQPENNYKTTPPVLDSDGSFFLVSKLTVDKSRWQQGNVFSCSVMHEALHNHYTQKSLSLSPGK heavy: not shown light: QAVVTQEPSLTVSPGGTVTLTCGSSTGAVTTSNYANWVQEKPGQAFRGLIGGTNKRAPGTPARFSGSLLGGKAALTLSGAQPEDEAEYYCALWYSNLWVFGGGTKLTVL | – | binds | – | –
G09 BsAb (GPRC5D&CD3 bispecific antibody) (bispecific antibody, not shown: human kappa constant region of vector pTT5-hKappa) DIQMTQSPSSLSASVGDRVTITCQASESISNYLSWYQQKPGKVPKLLIYRASTLASGVPSRFSGSGSGTDFTLTISSLQPEDVATYYCQGYDGSASSSNYESAFGQGTKLTVLGGGGSGGGGSGGGGSEVQLVESGGGLVQPGGSLRLSCAASGFSLSNNGITWVRQAPGKGLEWIGIITTTGSAYYAGWAKGRFTISRDNSKNTLYLQMNSLRAEDTAVYYCARGYGIHGLWGPGTLVTVSSDKTHTCPPCPAPELLGGPSVFLFPPKPKDTLMISRTPEVTCVVVDVSHEDPEVKFNWYVDGVEVHNAKTKPREEQYNSTYRVVSVLTVLHQDWLNGKEYKCKVSNKALPAPIEKTISKAKGQPREPQVCTLPPSREEMTKNQVSLSCAVKGFYPSDIAVEWESNGQPENNYKTTPPVLDSDGSFFLVSKLTVDKSRWQQGNVFSCSVMHEALHNHYTQKSLSLSPGK heavy: not shown light: QAVVTQEPSLTVSPGGTVTLTCGSSTGAVTTSNYANWVQEKPGQAFRGLIGGTNKRAPGTPARFSGSLLGGKAALTLSGAQPEDEAEYYCALWYSNLWVFGGGTKLTVL | – | binds | – | –
G05 humanized IgG1-type antibody (native structure) (antibody, V domains shown, also called G05-mAb) VH: EVQLVESGGGLVQPGGSLRLSCAASGFSLTDNGITWVRQAPGKGLEWIGIMTTGGSTYYAGWAKGRFTISRDNSKNTLYLQMNSLRAEDTATYFCTRGYGIHGLWGPGTLVTVSS VL: DIQMTQSPSSLSASVGDRVTITCQASESISKFLSWYQQKPGKVPKLLIYRASTLASGVPSRFSGSGSGTDFTLTISSLQPEDVATYYCQGYDGSSTTTNYESAFGQGTKLTVL | – | – | binds | –
G05 scFv-hFc humanized IgG1 format antibody (Fc fusion, not shown: human IgG1 Fc (hFc) of the scFv-hFc vector) DIQMTQSPSSLSASVGDRVTITCQASESISKFLSWYQQKPGKVPKLLIYRASTLASGVPSRFSGSGSGTDFTLTISSLQPEDVATYYCQGYDGSSTTTNYESAFGQGTKLTVLGGGGSGGGGSGGGGSEVQLVESGGGLVQPGGSLRLSCAASGFSLTDNGITWVRQAPGKGLEWIGIMTTGGSTYYAGWAKGRFTISRDNSKNTLYLQMNSLRAEDTATYFCTRGYGIHGLWGPGTLVTVSS | binds | – | – | –

Now from value to binder, other results behind:

binding result (human GPRC5D [1]) | binding result (human GPRC5D [3]) | binding result (human GPRC5D [4]) | Binder | other results
– | binds | – | G00 BsAb (GPRC5D&CD3 bispecific antibody with the control scFv G00) (bispecific antibody, also called GOO; not shown: human kappa constant region of vector pTT5-hKappa) QSALTQPASVSGSPGQSITISCTGTSSDVGGYNYVSWYQQHPGKAPKLMIYDVSKRPSGVSNRFSGSKSGNTASLTISGLQAEDEADYYCSSYTRSSTEVFGGGTKLTVLGSRGGGGSGGGGSGGGGSLEMAEVQLVQSGAEVKKPGASVKVSCKASGYTFTSYYMHWVRQAPGQGLEWMGIINPSGGSTSYAQKFQGRVTMTRDTSTSTVYMELSSLRSEDTAVYYCARGGSKKWSGEKWRRENFDYWGQGTLVTVSSDKTHTCPPCPAPELLGGPSVFLFPPKPKDTLMISRTPEVTCVVVDVSHEDPEVKFNWYVDGVEVHNAKTKPREEQYNSTYRVVSVLTVLHQDWLNGKEYKCKVSNKALPAPIEKTISKAKGQPREPQVCTLPPSREEMTKNQVSLSCAVKGFYPSDIAVEWESNGQPENNYKTTPPVLDSDGSFFLVSKLTVDKSRWQQGNVFSCSVMHEALHNHYTQKSLSLSPGK heavy: not shown light: QAVVTQEPSLTVSPGGTVTLTCGSSTGAVTTSNYANWVQEKPGQAFRGLIGGTNKRAPGTPARFSGSLLGGKAALTLSGAQPEDEAEYYCALWYSNLWVFGGGTKLTVL | –
– | binds | – | G07 BsAb (GPRC5D&CD3 bispecific antibody) (bispecific antibody, not shown: human kappa constant region of vector pTT5-hKappa) DIQMTQSPSSLSASVGDRVTITCQASESVSKFLSWYQQKPGKVPKLLIYRASTLASGVPSRFSGSGSGTDFTLTISSLQPEDVATYYCQGYDGSSTTTNYESAFGQGTKLTVLGGGGSGGGGSGGGGSEVQLVESGGGLVQPGGSLRLSCAASGFSLTDNGITWVRQAPGKGLEWIGIMTTGGTTYYAGWAKGRFTISRDNSKNTLYLQMNSLRAEDTAVYYCARGYGIHGLWGPGTLVTVSSDKTHTCPPCPAPELLGGPSVFLFPPKPKDTLMISRTPEVTCVVVDVSHEDPEVKFNWYVDGVEVHNAKTKPREEQYNSTYRVVSVLTVLHQDWLNGKEYKCKVSNKALPAPIEKTISKAKGQPREPQVCTLPPSREEMTKNQVSLSCAVKGFYPSDIAVEWESNGQPENNYKTTPPVLDSDGSFFLVSKLTVDKSRWQQGNVFSCSVMHEALHNHYTQKSLSLSPGK heavy: not shown light: QAVVTQEPSLTVSPGGTVTLTCGSSTGAVTTSNYANWVQEKPGQAFRGLIGGTNKRAPGTPARFSGSLLGGKAALTLSGAQPEDEAEYYCALWYSNLWVFGGGTKLTVL | –
– | – | binds | G09 humanized IgG1-type antibody (native structure) (antibody, V domains shown, also called G09-mAb) VH: EVQLVESGGGLVQPGGSLRLSCAASGFSLSNNGITWVRQAPGKGLEWIGIITTTGSAYYAGWAKGRFTISRDNSKNTLYLQMNSLRAEDTAVYYCARGYGIHGLWGPGTLVTVSS VL: DIQMTQSPSSLSASVGDRVTITCQASESISNYLSWYQQKPGKVPKLLIYRASTLASGVPSRFSGSGSGTDFTLTISSLQPEDVATYYCQGYDGSASSSNYESAFGQGTKLTVL | –
– | – | binds | G07 humanized IgG1-type antibody (native structure) (antibody, V domains shown, also called G07-mAb) VH: EVQLVESGGGLVQPGGSLRLSCAASGFSLTDNGITWVRQAPGKGLEWIGIMTTGGTTYYAGWAKGRFTISRDNSKNTLYLQMNSLRAEDTAVYYCARGYGIHGLWGPGTLVTVSS VL: DIQMTQSPSSLSASVGDRVTITCQASESVSKFLSWYQQKPGKVPKLLIYRASTLASGVPSRFSGSGSGTDFTLTISSLQPEDVATYYCQGYDGSSTTTNYESAFGQGTKLTVL | –
– | – | binds | G02 humanized IgG1-type antibody (native structure) (antibody, V domains shown) VH: EVQLVESGGGLVQPGGSLRLSCTASGFSLSSNAMSWVRQAPGKGLEWIGSIGRSGSTYNANWAKGRFTISRDNSKNTVYLQMNSLRAEDTAVYFCAKFTGGVSGGYFSVWGPGTLVTVSS VL: DIQMTQSPSTLSASVGDRVIINCQASQSVYNNNLLSWYQQKPGKAPKLLIYAASNLASGVPSRFSGSGSGAEFTLTISSLQPDDFATYYCQGYYGGAICAFGQGTKLTVL | –
binds | – | – | G09 scFv-hFc humanized IgG1 format antibody (Fc fusion, not shown: human IgG1 Fc (hFc) of the scFv-hFc vector) DIQMTQSPSSLSASVGDRVTITCQASESISNYLSWYQQKPGKVPKLLIYRASTLASGVPSRFSGSGSGTDFTLTISSLQPEDVATYYCQGYDGSASSSNYESAFGQGTKLTVLGGGGSGGGGSGGGGSEVQLVESGGGLVQPGGSLRLSCAASGFSLSNNGITWVRQAPGKGLEWIGIITTTGSAYYAGWAKGRFTISRDNSKNTLYLQMNSLRAEDTAVYYCARGYGIHGLWGPGTLVTVSS | –
binds | – | – | G07 scFv-hFc humanized IgG1 format antibody (Fc fusion, not shown: human IgG1 Fc (hFc) of the scFv-hFc vector) DIQMTQSPSSLSASVGDRVTITCQASESVSKFLSWYQQKPGKVPKLLIYRASTLASGVPSRFSGSGSGTDFTLTISSLQPEDVATYYCQGYDGSSTTTNYESAFGQGTKLTVLGGGGSGGGGSGGGGSEVQLVESGGGLVQPGGSLRLSCAASGFSLTDNGITWVRQAPGKGLEWIGIMTTGGTTYYAGWAKGRFTISRDNSKNTLYLQMNSLRAEDTAVYYCARGYGIHGLWGPGTLVTVSS | –
